Experimental findings from patent US20250154272A1 (Astellas, published 2025) are described below.

Test [1] deals with T1, monkey CD137-human Fc fusion protein (monkey; human, UniProt Q07011 24-186).
T1 construct: not shown: human IgG1 Fc of the pFUSE-hIgG1-Fc1 vector (InvivoGen, pfuse-hg1fc1)
T1 chain: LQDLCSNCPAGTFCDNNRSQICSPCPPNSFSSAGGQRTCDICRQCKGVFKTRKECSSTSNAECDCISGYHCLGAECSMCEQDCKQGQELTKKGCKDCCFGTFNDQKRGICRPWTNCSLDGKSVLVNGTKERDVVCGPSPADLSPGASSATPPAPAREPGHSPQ
As to the kind of experiment: ELISA of the purified antibody on coated plates.

Test [2] has as its target T2, human CD137-human Fc fusion protein (human, UniProt Q07011 24-186).
T2 construct: not shown: human IgG1 Fc of the pFUSE-hIgG1-Fc1 vector (InvivoGen, pfuse-hg1fc1)
As to the kind of experiment: ELISA of the purified antibody on coated plates.

Test [3] has as its target T3, human CD137-His tag protein (R&D Systems, 9220-4B) (human, UniProt Q07011 24-186).
T3 construct: Bought protein; not shown: His tag of the bought protein
As to the kind of experiment: ELISA, human CD137-His tag protein immobilized on the plate, anti-human IgG Fc-HRP, A450-A570.

Test [4] concerns the target T3, human CD137-His tag protein (R&D …). Described as above. The source holds these as a separate data set.
The target of test [5] is T4, human CLDN4 expressed on CHO-K1 cells (human, UniProt O14493 1-209).
T4 construct: whole, on cells; also called human CLDN4 expressing CHO-K1
T4 sequence (looked up): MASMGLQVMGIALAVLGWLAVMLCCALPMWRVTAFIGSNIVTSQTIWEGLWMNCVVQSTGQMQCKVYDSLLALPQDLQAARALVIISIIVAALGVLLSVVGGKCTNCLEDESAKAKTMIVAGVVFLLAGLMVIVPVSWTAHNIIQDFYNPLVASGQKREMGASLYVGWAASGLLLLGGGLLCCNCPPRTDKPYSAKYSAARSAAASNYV
As to the kind of experiment: flow cytometry on human CLDN4 expressing CHO-K1, apparent KD.

Test [6] deals with T3, human CD137-His tag protein (R&D …). As to the kind of experiment: ELISA, human CD137-His tag protein immobilized on the plate, anti-human IgG Fc-HRP, A450-A570. The source holds these as a separate data set.

Like-named read-outs stand apart in the source and are kept apart here.

B1: anti-CD137 antibody A2-73 (antibody, V domains shown)
VH: QVQLQESGPGLVKPSETLSLTCTVSGGSISSYYWTWIRQPPGKGLELVGYIYYSGYTSYNPSLKSRVTISIDTSKNQFSLQLNSVTAADTAVYFCARDDYGGNGYYGVDVWGQGTTVTVSS
VL: not shown
notes: Purified from a hybridoma derived from an AlivaMab mouse
For the molecule B1, the binding result in test [1] and in test [2] was “binds” each time.

B2: anti-CD137 antibody 3-34 (antibody, V domains shown)
VH: QVQLQQSEAELVRPGASVKISCKAFGYTFTNHHINWVKQRPGQGLDWIGYINPYNDYTTFNRKFKDKATLTVHKSSSTAYMELSGLTSDDSAVYYCARTWGHWYFDLWGRGTVVTVSS
VL: EIVMTQSPATLSVSPGERATLSCRASQSVSSNLAWYQQKPGQAPRLLIYDSSTRATGIPARFSGSGSGTDFTLTISSLQSEDFAVYYCQQYNNWPPWTFGQGTKVEIKR
notes: Purified from a hybridoma derived from a VelocImmune mouse (human variable, mouse constant regions)
For B2, the binding result in test [1] and in test [2] was “binds” throughout.

B3: anti-CD137 antibody A2-48 (antibody, V domains shown)
VH: QVQLQESGPGLVKPSETLSLTCTVSGGSISSYYWSWIRQPPGKGLEWIGYIYYSGYTNYNPSLKSRVNISVDTSQNQFSLKLNSLTAADTAVYYCARTHSYYYGMDVWGQGTTVTVSS
VL: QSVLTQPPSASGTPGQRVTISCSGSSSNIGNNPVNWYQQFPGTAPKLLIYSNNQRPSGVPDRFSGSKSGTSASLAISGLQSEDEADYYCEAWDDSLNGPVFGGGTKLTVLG
notes: as for B1
For the molecule B3, the binding result in test [1] and in test [2] was “binds” each time.

B4: anti-CD137 antibody A2-32 (antibody, V domains shown)
VH: QVQLQESGPGLVKPSETLSLTCTVSGGSISGYYWSWIRQPPGKGLEWIGYIYYSGFTNYNPSLKSRVTISVDTSKNQFSLKLSSVTAADTAVYYCTRDHSHYYYMDVWGQGTTVTVSS
VL: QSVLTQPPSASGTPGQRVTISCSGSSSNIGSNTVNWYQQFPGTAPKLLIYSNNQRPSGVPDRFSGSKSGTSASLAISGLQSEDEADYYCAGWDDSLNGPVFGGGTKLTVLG
notes: as for B1
B4: the binding result in test [1] and in test [2] was “binds” in each case.

B5: anti-CLDN4 (hKM3900)/anti-CD137 scFv bispecific antibody hKM3900_tA2-32 (bispecific antibody)
heavy (part 1 of 2): EVQLVQSGAEVKKPGASVKISCKASGYTFTDYYMNWVRQAPGQGLEWMGDVVPNNGVPTYNQKFKGRVTITADKSTSTAYMELRSLRSEDTAVYYCARPHYYYAGRSGAMDYWGQGTLVTVSS
heavy (part 2 of 2): QVQLQESGPGLVKPSETLSLTCTVSGGSISGYYWSWIRQPPGKCLEWIGYIYYSGFTNYNPSLKSRVTISVDTSKNQFSLKLSSVTAADTAVYYCTRDHSHYYYMDVWGQGTTVTVSSGGGGSGGGGSGGGGSQSVLTQPPSASGTPGQRVTISCSGSSSNIGSNTVNWYQQFPGTAPKLLIYSNNQRPSGVPDRFSGSKSGTSASLAISGLQSEDEADYYCAGWDDSLNGPVFGCGTKLTVLG
light: DIQLTQSPSSLSASVGDRVTITCTASSTVSSTYLHWYQQKPGKAPKLLIYSTSNLASGVPSRFSGSGSGTDYTLTISSLQPEDFATYYCHQYHRSPPTFGQGTKLEIKRTVAAPSVFIFPPSDEQLKSGTASVVCLLNNFYPREAKVQWKVDNALQSGNSQESVTEQDSKDSTYSLSSTLTLSKADYEKHKVYACEVTHQGLSSPVTKSFNRGEC
notes: scFv at the heavy chain C-terminus; not shown: human IgG1 heavy chain constant region; mutation positions by EU index; GS linker
With B5, the “EC50 (read off the curve)” value in test [3] was roughly 10 ng/mL.

B6: anti-CLDN4 (hKM3900)/anti-CD137 scFv bispecific antibody hKM3900_tA2-32_S (bispecific antibody)
heavy (part 1 of 2): EVQLVQSGAEVKKPGASVKISCKASGYTFTDYYMNWVRQAPGQGLEWMGDVVPNNGVPTYNQKFKGRVTITADKSTSTAYMELRSLRSEDTAVYYCARPHYYYAGRSGAMDYWGQGTLVTVSS
heavy (part 2 of 2): QVQLQESGPGLVKPSETLSLTCTVSGGSISGYYWSWIRQPPGKCLEWIGYIYYSGFTNYNPSLKSRVTISVDTSKNQFSLKLSSVTAADTAVYYCTRDHSHYYYMDVWGQGTTVTVSSGGGGSGGGGSGGGGSQSVLTQPPSASGTPGQRVTISCSGSSSNIGSNTVNWYQQFPGTAPKLLIYSNNQRPSGVPDRFSGSKSGTSASLAISGLQSEDEADYYCAGWDDSLNGPVFGCGTKLTVLG
light: DIQLTQSPSSLSASVGDRVTITCTASSTVSSTYLHWYQQKPGKAPKLLIYSTSNLASGVPSRFSGSGSGTDYTLTISSLQPEDFATYYCHQYHRSPPTFGQGTKLEIKRTVAAPSVFIFPPSDEQLKSGTASVVCLLNNFYPREAKVQWKVDNALQSGNSQESVTEQDSKDSTYSLSSTLTLSKADYEKHKVYACEVTHQGLSSPVTKSFNRGEC
notes: as for B5
For B6, in test [4], the “EC50 (read off the curve)” value was roughly 10 ng/mL.

B7: anti-CLDN4 (hKM3900)/anti-CD137 scFv bispecific antibody hKM3900_tA2-73 (bispecific antibody)
heavy (part 1 of 2): EVQLVQSGAEVKKPGASVKISCKASGYTFTDYYMNWVRQAPGQGLEWMGDVVPNNGVPTYNQKFKGRVTITADKSTSTAYMELRSLRSEDTAVYYCARPHYYYAGRSGAMDYWGQGTLVTVSS
heavy (part 2 of 2): QVQLQESGPGLVKPSETLSLTCTVSGGSISSYYWTWIRQPPGKCLELVGYIYYSGYTSYNPSLKSRVTISIDTSKNQFSLQLNSVTAADTAVYFCARDDYGGNGYYGVDVWGQGTTVTVSSGGGGSGGGGSGGGGSQSVLTQPPSASGTPGQRVTISCSGSSSNIGNNPVNWYRQLPGTAPKLLIYSNNQRPSGVPDRFSGSKSGTSASLAISGLQSEDEADYYCAAWDDSLNGWVFGCGTKLTVLG
light: DIQLTQSPSSLSASVGDRVTITCTASSTVSSTYLHWYQQKPGKAPKLLIYSTSNLASGVPSRFSGSGSGTDYTLTISSLQPEDFATYYCHQYHRSPPTFGQGTKLEIKRTVAAPSVFIFPPSDEQLKSGTASVVCLLNNFYPREAKVQWKVDNALQSGNSQESVTEQDSKDSTYSLSSTLTLSKADYEKHKVYACEVTHQGLSSPVTKSFNRGEC
notes: as for B5
On to B7, for which, in test [3], the “EC50 (read off the curve)” value was roughly 10 ng/mL.

B8: humanized anti-CLDN4 (hKM3900) antibody (antibody, V domains shown)
VH: EVQLVQSGAEVKKPGASVKISCKASGYTFTDYYMNWVRQAPGQGLEWMGDVVPNNGVPTYNQKFKGRVTITADKSTSTAYMELRSLRSEDTAVYYCARPHYYYAGRSGAMDYWGQGTLVTVSS
VL: DIQLTQSPSSLSASVGDRVTITCTASSTVSSTYLHWYQQKPGKAPKLLIYSTSNLASGVPSRFSGSGSGTDYTLTISSLQPEDFATYYCHQYHRSPPTFGQGTKLEIKR
Turning to B8, the Kd in test [5] was 10.8 nM. In addition, the binding result in test [6] is reported as “no binding (tested: 1000 ng/mL)”.

B9: anti-CLDN4 (hKM3900)/anti-CD137 scFv bispecific antibody hKM3900_tA2-48 (bispecific antibody)
heavy (part 1 of 2): EVQLVQSGAEVKKPGASVKISCKASGYTFTDYYMNWVRQAPGQGLEWMGDVVPNNGVPTYNQKFKGRVTITADKSTSTAYMELRSLRSEDTAVYYCARPHYYYAGRSGAMDYWGQGTLVTVSS
heavy (part 2 of 2): QVQLQESGPGLVKPSETLSLTCTVSGGSISSYYWSWIRQPPGKCLEWIGYIYYSGYTNYNPSLKSRVNISVDTSQNQFSLKLNSLTAADTAVYYCARTHSYYYGMDVWGQGTTVTVSSGGGGSGGGGSGGGGSQSVLTQPPSASGTPGQRVTISCSGSSSNIGNNPVNWYQQFPGTAPKLLIYSNNQRPSGVPDRFSGSKSGTSASLAISGLQSEDEADYYCEAWDDSLNGPVFGCGTKLTVLG
light: DIQLTQSPSSLSASVGDRVTITCTASSTVSSTYLHWYQQKPGKAPKLLIYSTSNLASGVPSRFSGSGSGTDYTLTISSLQPEDFATYYCHQYHRSPPTFGQGTKLEIKRTVAAPSVFIFPPSDEQLKSGTASVVCLLNNFYPREAKVQWKVDNALQSGNSQESVTEQDSKDSTYSLSSTLTLSKADYEKHKVYACEVTHQGLSSPVTKSFNRGEC
notes: as for B5
With B9, the “EC50 (read off the curve)” value in test [3] is roughly 10 ng/mL.
